Assay results published in patent publication US20190284297A1 (NOVIMMUNE, published 2019).
Numbering of substitutions follows the chain as printed.

B1: IgG 1D8 (antibody, V domains shown)
VH: EVQLVESGGGLVQPGGSLKLSCAASGFTFNTYAMNWVRQAPGKGLEWVGRIRSKYNNYATYYADSVKDRFTISRDDSKNTAYLQMNSLKTEDTAVYYCVRHGNFGNSYVSWFAYWGQGTLVTVSS
VL: QTVVTQEPSLTVSPGGTVTLTCRSSTGAVTTSNYANWFQQKPGQAPRGLIGGTNKRAPGTPARFSGSLLGGKAALTLSGAQPEDEAEYYCALWYDGTWVFGGGTKLTVL
notes: also called L3sp34-G1-1-R2-P1_D8
B2: IgG 1F8 (antibody, V domains shown)
VH: B1 VH
VL: B1 VL with T97K
notes: also called L3sp34-G1-2-R2-P1_F8
B3: IgG 1A11 (antibody, V domains shown)
VH: B1 VH
VL: B1 VL with T97W
notes: also called L3sp34-G1-1-R2-P1_A11
B4: IgG 1A10 (antibody, V domains shown)
VH: B1 VH
VL: B1 VL with D95K, T97Y
notes: also called L3sp34-G1-2-R2-P1_A10
B5: IgG 1A4 (antibody, V domains shown)
VH: B1 VH
VL: B1 VL with D95K, G96Q, T97R
notes: also called L3sp34-G1-2-R2-P1_A4
B6: IgG 1B6 (antibody, V domains shown)
VH: B1 VH
VL: B1 VL with D95A, G96N, T97R
notes: also called L3sp34-G1-1-R2-P1_B6

Experiments:
[1] = target: T1, human CD3ε on T cells (Jurkat T cell line; CD4+ and CD8+ T cells from healthy human donors) (human, UniProt P07766 23-207); assay: FACS on CD4+ T cells from PBMCs of healthy donors, antibody at 0.1 µg/ml
T1 construct: whole, on cells
T1 sequence (P07766 23-207): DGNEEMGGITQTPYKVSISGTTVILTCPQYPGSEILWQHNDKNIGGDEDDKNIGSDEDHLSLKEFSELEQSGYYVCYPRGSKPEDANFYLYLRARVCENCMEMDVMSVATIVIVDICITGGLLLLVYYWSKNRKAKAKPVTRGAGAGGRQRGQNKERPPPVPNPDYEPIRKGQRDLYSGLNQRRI
Procedure: (§1) Binding was also evaluated by FACS on different cell populations including T cell lines and natural cell populations derived from healthy blood donors. First, control and antiCD3ε candidates were tested at different concentration on the human T cell line Jurkat. […] Binding to native cell populations was performed by isolating PBMCs from healthy donors and evaluating binding to CD4+ and CD8+ T cells as well as B cells.

[2] = target: T1, human CD3ε on T cells (Jurkat T cell …); assay: FACS on CD8+ T cells from PBMCs of healthy donors, antibody at 0.1 µg/ml
Procedure: as §1

| Binder | MFI on CD4+ T cells [1] | MFI on CD8+ T cells [2] |
| --- | --- | --- |
| B1 | 286 MFI | 161 MFI |
| B2 | 284 MFI | 157 MFI |
| B3 | 205 MFI | 119 MFI |
| B4 | 96 MFI | 43 MFI |
| B5 | 284 MFI | 173 MFI |
| B6 | 231 MFI | 130 MFI |
